The results in this text go back to PMC6140455.

Where a chain is given by its changes, count along the chain named.

Test in all cases: fluorescence anisotropy
For one data set, the target named is T1, YTHDC2 YTH domain (Homo sapiens, UniProt Q9H6S0 1277-1430).
T1 sequence: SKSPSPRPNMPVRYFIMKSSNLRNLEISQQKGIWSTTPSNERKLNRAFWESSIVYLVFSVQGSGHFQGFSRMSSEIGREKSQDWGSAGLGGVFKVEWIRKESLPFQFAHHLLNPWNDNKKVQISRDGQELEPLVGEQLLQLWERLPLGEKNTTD

The next data set has as its target T2, YTHDC2 YTH domain W1360A (Homo sapiens, UniProt Q9H6S0 1277-1430, W1360A).
T2 sequence: T1 sequence with W84A

The target in a further data set is T3, YTHDC2 YTH domain W1310A (Homo sapiens, UniProt Q9H6S0 1277-1430, W1310A).
T3 sequence: T1 sequence with W34A

B1: GGm6ACU 9-nt RNA (ssRNA)
RNA: CCGGACUGU
modifications: N6-methyladenosine at position 5
As to B1, the Kd in the data set with YTHDC2 YTH domain came out at 3.2 ± 0.3 µM. Further, the binding result in the data set with YTHDC2 YTH domain W1360A and in the data set with YTHDC2 YTH domain W1310A was “no binding” throughout.
